In patent US6998383B2, “Inhibitors of receptor activator of NF-κB and uses thereof” (Research Development Corporation, priority 2001, dated 2006):

What was measured:
RAW264.7 cells = test: RANKL-mediated osteoclast differentiation in RAW264.7 cells (TRAP staining); type: cell-based, mouse; details: RANKL, increasing amounts of peptide, 4-5 days (FIG. 2C)
Procedure: RAW264.7 cells were plated in 12-well plates and stimulated with RANKL (30 ng/ml) for 4 days. Cells were stained for TRAP essentially as described below. Photographs were taken using a 10× objective lens.
RAW cells were plated as described in FIG. 2A and treated with RANKL in the presence of 1, 30, or 100 μM of peptides as indicated. On day 4 cells were stained and evaluated as in FIG. 2A.
RAW264.7 cells were plated in 48-well plates in triplicate and treated with RANKL in the presence of increasing amounts of the indicated peptides. After 4-5 days, the cells were stained for TRAP and the total numbers of osteoclasts were counted as described below.
(§1) Primary bone marrow monocytes (BM) or RAW264.7 cells were cultured in 48-well dishes at a density of 1×10^5 cells/well or 2×10^3 cells/well, and then treated with the indicated factors at the beginning of the culture and during a medium change on day 3. Osteoclast formation was assessed by counting the total number of multi-nucleated (>3 nuclei), TRAP-positive cells present per well between day 7 and 10 (BM) or on day 5 (RAW264.7) (30).
The mouse macrophage cell line RAW264.7 express the receptor activator of NF-κB on their cell surface and when stimulated with the receptor activator of NF-κB ligand differentiate into multi-nucleated, tartrate resistant acid phosphatase (TRAP) positive osteoclasts after 4-5 days (FIG. 2A). To determine whether L-T6DP-1 could inhibit RANKL-mediated osteoclast differentiation, RAW264.7 cells were co-cultured with increasing concentrations of either L-T6DP-1. or T6DP-1 and 30 ng/ml RANKL for 4 days.

[1] = target: T1, TRAF5 binding to the cytoplasmic domain of RANK (Mus musculus, UniProt P70191); test: Competitive GST-pull down assay, TRAF5 binding to RANK cytoplasmic domain; details: 100 μM peptide, FLAG-TRAF5 293 cell extract (FIG. 4C)
T1 construct: expressed in transfected cells; host or cells: human 293 cells (TRAF lysate); The GST-RANK fusion was purified as previously described
Procedure: (§2) Cellular extracts from human 293 cells transfected with either FLAG-TRAF2, -TRAF5, or -TRAF6 were mixed with GST or GST-RANKed in the absence or presence of 100 μM of the indicated peptides. A GST-pull down assay was performed as described below. The bound TRAFs were visualized by immunoblotting with anti-FLAG antibodies.
(§3) Equivalent amounts of GST or GST-RANK cytoplasmic domain (GST-RANKed) fusion protein attached to 20 μl of glutathione agarose beads were mixed with lysates (50 μg) from 293 cells programmed to express the epitope-tagged TRAF protein and the indicated peptides in binding buffer (20 mM TRIS, pH 8, 150 mM NaCl, 1 mM DTT, 2 mM EDTA, and 0.1% NP-40) and allowed to rotate for 1 h at 4° C. The beads were collected by centrifugation, washed three times in binding buffer, and then washed once in low-salt buffer (20 mM TRIS, pH 8, 50 mM NaCl, and 1 mM DTT). Bound proteins were eluted with addition of SDS-sample buffer and boiled. The eluted proteins were subjected to 7.5% SDS-PAGE and western blot analysis was performed with anti-FLAG antibodies.
(§4) The cytoplasmic domain of RANK interacts with many TRAF molecules, including TRAF1, 2, 3, 5, and 6 (7-9, 11, 12). While TRAF1, 2, 3, and 5 interact with the c-terminal tail of receptor activator of NF-κB, TRAF6 interacts with a membrane proximal region of the cytoplasmic domain of the receptor activator of NF-κB. […]

[2] = target: T2, TRAF2 binding to the cytoplasmic domain of RANK (Homo sapiens, UniProt Q12933); test: Competitive GST-pull down assay, TRAF2 binding to RANK cytoplasmic domain; details: 100 μM peptide, FLAG-TRAF2 293 cell extract (FIG. 4C)
T2 construct: expressed in transfected cells; host or cells: human 293 cells (TRAF lysate); The GST-RANK fusion was purified as previously described
T2 sequence (Q12933 1-501): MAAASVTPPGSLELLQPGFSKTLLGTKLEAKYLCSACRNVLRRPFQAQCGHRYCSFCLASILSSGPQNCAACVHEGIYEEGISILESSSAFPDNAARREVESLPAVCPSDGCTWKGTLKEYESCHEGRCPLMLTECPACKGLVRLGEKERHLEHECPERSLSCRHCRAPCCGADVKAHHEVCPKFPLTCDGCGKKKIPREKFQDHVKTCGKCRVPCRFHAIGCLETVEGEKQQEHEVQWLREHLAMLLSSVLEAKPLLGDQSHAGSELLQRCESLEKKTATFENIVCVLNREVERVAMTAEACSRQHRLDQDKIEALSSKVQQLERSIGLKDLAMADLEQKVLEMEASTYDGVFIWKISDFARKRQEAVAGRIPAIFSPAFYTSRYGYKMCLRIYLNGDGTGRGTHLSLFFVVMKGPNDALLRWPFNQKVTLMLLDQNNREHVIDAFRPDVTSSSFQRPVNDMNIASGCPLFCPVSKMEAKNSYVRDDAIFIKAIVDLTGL
Procedure: as §2, §3, §4

[3] = test system: bone marrow-derived mouse monocytes; test: RANKL and M-CSF-mediated osteoclast differentiation in bone marrow-derived mouse monocytes (TRAP staining); type: cell-based; details: M-CSF 10 ng/ml and RANKL 30 ng/ml (FIGS. 3A, 3B)
Procedure: After 6-7 days, the cells were fixed and stained for TRAP. The numbers of multi-nucleated, TRAP positive osteoclasts were counted.
Mouse-derived monocytes were plated in 48-well plates and costimulated as in FIG. 3A with murine M-CSF (10 ng/ml) and RANKL (30 ng/ml) in the absence (left panel) or presence of the indicated peptides. After 6-7 days, the cells were fixed and stained for TRAP. A representative field from each well was taken at a magnification of 10×.
as §1
To further support the results obtained from the RAW264.7 cell line, the ability of these peptides to inhibit RANKL-mediated osteoclast differentiation in primary mouse-derived monocytes was tested. Costimulation of bone marrow-derived monocytes with RANKL and M-CSF cause osteoclast differentiation after 7-10 days, as determined by staining multi-nucleated, TRAP positive osteoclasts (30). Similar to the results with RAW264.7 cells, both L-T6DP-1 and L-T6DP-2 inhibited the development of TRAP positive osteoclast in a dose-dependent manner and L-T6DP-1 was much more efficient (FIGS. 3A and 3B).

[4] = target: T3, TRAF6 binding to the RANK cytoplasmic domain (Mus musculus, UniProt P70196); test: Competitive GST-pull down assay, TRAF6 binding to RANK cytoplasmic domain; details: 100 μM peptide, FLAG-TRAF6 293 cell extract, GST-RANK cytoplasmic domain (FIG. 4C)
T3 construct: expressed in transfected cells; host or cells: human 293 cells (TRAF lysate); The GST-RANK fusion was purified as previously described
T3 sequence (P70196 1-530): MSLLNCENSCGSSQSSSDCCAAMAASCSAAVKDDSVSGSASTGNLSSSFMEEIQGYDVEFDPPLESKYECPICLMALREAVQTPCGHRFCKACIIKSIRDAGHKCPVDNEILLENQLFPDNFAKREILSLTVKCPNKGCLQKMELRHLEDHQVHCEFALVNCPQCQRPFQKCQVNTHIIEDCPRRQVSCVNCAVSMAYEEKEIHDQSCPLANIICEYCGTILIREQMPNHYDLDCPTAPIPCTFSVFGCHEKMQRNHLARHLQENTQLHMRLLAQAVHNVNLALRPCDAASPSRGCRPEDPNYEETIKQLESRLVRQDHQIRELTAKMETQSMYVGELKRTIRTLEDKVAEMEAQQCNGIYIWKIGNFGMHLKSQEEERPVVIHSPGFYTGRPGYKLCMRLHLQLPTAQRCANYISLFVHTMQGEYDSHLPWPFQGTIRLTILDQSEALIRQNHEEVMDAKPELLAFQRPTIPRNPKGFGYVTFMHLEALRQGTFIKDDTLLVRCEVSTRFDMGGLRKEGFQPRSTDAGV
Procedure: as §2, §3, §4

T1 sequence (P70191 whole entry, the tested form may be a part): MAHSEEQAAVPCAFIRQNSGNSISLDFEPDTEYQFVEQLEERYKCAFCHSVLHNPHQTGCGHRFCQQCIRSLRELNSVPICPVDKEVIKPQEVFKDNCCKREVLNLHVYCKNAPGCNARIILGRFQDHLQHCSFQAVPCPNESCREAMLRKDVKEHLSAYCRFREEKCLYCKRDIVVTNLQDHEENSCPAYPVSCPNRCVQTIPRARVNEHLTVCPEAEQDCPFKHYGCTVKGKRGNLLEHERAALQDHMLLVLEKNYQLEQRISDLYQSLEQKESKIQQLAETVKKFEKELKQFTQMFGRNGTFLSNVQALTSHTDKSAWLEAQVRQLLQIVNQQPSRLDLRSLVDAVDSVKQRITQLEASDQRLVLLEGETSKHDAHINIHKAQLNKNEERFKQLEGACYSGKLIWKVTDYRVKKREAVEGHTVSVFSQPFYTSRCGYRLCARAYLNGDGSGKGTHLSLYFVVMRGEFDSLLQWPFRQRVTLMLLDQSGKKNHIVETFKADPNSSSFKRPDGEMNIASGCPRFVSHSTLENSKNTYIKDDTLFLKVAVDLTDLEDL

L-T6DP-2: Kaposi fibroblast growth factor signal sequence hydrophobic domain attached to murine RANK peptide containing a similar TRAF6-binding motif (AAVALLPAVLLALLAPFQEPLEVGE)
number of TRAP positive osteoclasts (RAW264.7 cells): dose-dependent decrease
TRAF5 binding to the cytoplasmic domain of RANK [1]: neither L-T6DP-1 nor L-T6DP-2 inhibited
TRAF2 binding to the cytoplasmic domain of RANK [2]: neither L-T6DP-1 nor L-T6DP-2 inhibited
development of TRAP positive osteoclasts [3]: inhibited
TRAF6 interaction with the cytoplasmic domain of RANK [4]: Only L-T6DP-1 inhibited
